This passage reports maximal percent inhibition of 3G8 binding (at 3 mg/mL) results from publication PMC7026020.

The target in experiment [1] is membrane FcγRIIIA (human) (UniProt P08637). Put plainly: flow cytometry on cells. For orientation: Flow cytometry measures light scatter and fluorescence of single cells or particles in a stream.
Experiment [2] has the same target. As to the kind of experiment: flow cytometry on cells; competition: CD16-transduced NK92 cells (2 x 10^4) incubated with FITC-conjugated anti-CD16 3G8 (1:100) and increasing concentrations of TmAbs or sc-TmAbs, 30 min at 4°C; percent inhibition of 3G8 binding.

Sequence of UniProt P08637 (P08637 17-208): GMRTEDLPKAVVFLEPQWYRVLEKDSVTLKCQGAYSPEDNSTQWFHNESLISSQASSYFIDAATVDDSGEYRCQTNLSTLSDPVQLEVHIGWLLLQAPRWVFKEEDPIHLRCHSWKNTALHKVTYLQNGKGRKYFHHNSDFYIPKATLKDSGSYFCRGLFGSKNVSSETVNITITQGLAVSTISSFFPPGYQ

The substance ipilimumab (antibody) registered a maximal percent inhibition of 3G8 binding (at 3 mg/mL) in experiment [1] of 80%.
Consider trastuzumab (antibody), for which the maximal percent inhibition of 3G8 binding (at 3 mg/mL) in experiment [1] was 80%.
Take infliximab (antibody): the maximal percent inhibition of 3G8 binding (at 3 mg/mL) in experiment [2] was determined as 80%.
Take rituximab (antibody): the maximal percent inhibition of 3G8 binding (at 3 mg/mL) in experiment [1] was 80%.
Turning to cetuximab (antibody), in experiment [1], the maximal percent inhibition of 3G8 binding (at 3 mg/mL) was 80%.
